Measurements from patent publication US12077763B2, “RNA-based control of powdery mildew” (Greenlight Biosciences, Inc., priority 2021, dated 2024).

System: E. necator
Test: Leaf disc assay, dry inoculum (settling tower), decrease in disease severity / hyphal growth (Example 2)
Details: decrease in disease severity (hyphal growth) relative to untreated control, value ± SE; for % decrease =/− SE TP1: time point 1 (untreated control hyphal growth ≥50%); for % decrease =/− SE TP2: time point 2

B1: GS3672 (nucleic acid)
sense: UUCCUGGACAACCAGUAAAGAAAAAGUUGGGACCAAAUCAAACACAAGAAAUGAUAAAGUUUGCAUGUCGAACACCUGCCCAAAAUGCUACCUCAGUUGUUCAAGAUGGAAGACAUGUUUUGAGCCUGAACUCUAGCAACCCUGUUCUAUCUGAAUUUGGCCUUCAAGUAGGUCAGUCUUUGAUAUCAGUAAAUGCUCGAGUACUACAACCACCGUCUGUGAGAUAUGGAGGAUCUGGAAGUCUAUCACCGAGAAAUGGUAGUUGGAAUAUGAUUAACGUGAGAUUUCAUACACCCGCCAAAAUCGGACCAUGGACUUGUAUUAUGUUUCCCACCCAAGGAAGAAAUGACAUUGAUGUUGGUAAUAUGAGAUCACAUGUCACUGCUUUCCAAGCACA
antisense: UGUGCUUGGAAAGCAGUGACAUGUGAUCUCAUAUUACCAACAUCAAUGUCAUUUCUUCCUUGGGUGGGAAACAUAAUACAAGUCCAUGGUCCGAUUUUGGCGGGUGUAUGAAAUCUCACGUUAAUCAUAUUCCAACUACCAUUUCUCGGUGAUAGACUUCCAGAUCCUCCAUAUCUCACAGACGGUGGUUGUAGUACUCGAGCAUUUACUGAUAUCAAAGACUGACCUACUUGAAGGCCAAAUUCAGAUAGAACAGGGUUGCUAGAGUUCAGGCUCAAAACAUGUCUUCCAUCUUGAACAACUGAGGUAGCAUUUUGGGCAGGUGUUCGACAUGCAAACUUUAUCAUUUCUUGUGUUUGAUUUGGUCCCAACUUUUUCUUUACUGGUUGUCCAGGAA
  % decrease =/− SE TP1: 34 ± 4%
  % decrease =/− SE TP2: 26 ± 7%

B2: GS3673 (nucleic acid)
sense: AACUACUAACCUCGCCGCCCUAUAUAAGAAGAUGGGAACGCAAAAUCGUGUCAAUUUGAAAGAAAAGUUAAAAGGAAUGCGAAUCCAAAUCACACAUCUGCCCCCAAAGAUUAAUAAAACAACCGGAAAGGUUAUACCAAGGAUUAAAACCAUUCAAGGCCUUGCAAAUAUUAAUGAUGGUGCCAAAGAGGAGCAUCGACCAGAGGUUGCUGGAUAUGGUGCUGGUCCUCAAAAGGUCAAGUUUUGGGUAUCUGAAGAUACUGGCACUUCUAAAACCAGCCAAAAAAACCCCUUGCCAUCUAACACUUACAUCAGUGUAUAUGAUUACUUCAAAAAAAGAUACCCAAAGAUUGAAUUGGAUCCAAUAAAUCCUGUAGUUAAUGUUGGAAACAGUGAA
antisense: UUCACUGUUUCCAACAUUAACUACAGGAUUUAUUGGAUCCAAUUCAAUCUUUGGGUAUCUUUUUUUGAAGUAAUCAUAUACACUGAUGUAAGUGUUAGAUGGCAAGGGGUUUUUUUGGCUGGUUUUAGAAGUGCCAGUAUCUUCAGAUACCCAAAACUUGACCUUUUGAGGACCAGCACCAUAUCCAGCAACCUCUGGUCGAUGCUCCUCUUUGGCACCAUCAUUAAUAUUUGCAAGGCCUUGAAUGGUUUUAAUCCUUGGUAUAACCUUUCCGGUUGUUUUAUUAAUCUUUGGGGGCAGAUGUGUGAUUUGGAUUCGCAUUCCUUUUAACUUUUCUUUCAAAUUGACACGAUUUUGCGUUCCCAUCUUCUUAUAUAGGGCGGCGAGGUUAGUAGUU
  % decrease =/− SE TP1: 34 ± 4%
  % decrease =/− SE TP2: 29 ± 6%

B3: GS3916 (nucleic acid)
sense: UUACAAUCCAUGCACCAUCCAUUAAGCGAAAAUAAACCAUCACUGUUGAGAAAGAAGUUAAACGUGAUUUGAGCUGUUAUAAGAGUUGAGUUUAACACAGUAUUUUGAAUUUGUUCUAAUCCUGUACUUGCUAUUUUUGAAUCUUCGAGUGAUGGUGCAAGAUCAACGUUGAAGUGUAUGAUAGAAUCUGGUGCAGUUUCGGUACUUAAGUACAGAUAUGUUGCAAUGCCAAAACUAUCACUAGCACCACGCAUAGCAAAGAAAAUAUCGGGAUUUGUAUCAUCACUGGCGAAAAUUUCCUGUCCAUCAGCAAGAAUAACAUCCAUACCAACGAUGUGAUCA
antisense: UGAUCACAUCGUUGGUAUGGAUGUUAUUCUUGCUGAUGGACAGGAAAUUUUCGCCAGUGAUGAUACAAAUCCCGAUAUUUUCUUUGCUAUGCGUGGUGCUAGUGAUAGUUUUGGCAUUGCAACAUAUCUGUACUUAAGUACCGAAACUGCACCAGAUUCUAUCAUACACUUCAACGUUGAUCUUGCACCAUCACUCGAAGAUUCAAAAAUAGCAAGUACAGGAUUAGAACAAAUUCAAAAUACUGUGUUAAACUCAACUCUUAUAACAGCUCAAAUCACGUUUAACUUCUUUCUCAACAGUGAUGGUUUAUUUUCGCUUAAUGGAUGGUGCAUGGAUUGUAA
  % decrease =/− SE TP1: 11 ± 9%
